Drawing on article PMC10055720, this text covers POT1–TPP1-stimulated processivity in the trans complementation primer extension assay, relative to WT and total telomerase activity in the trans complementation primer extension assay, relative to WT TERT∆TEN with TEN for 1 substance.

The assay deals with human TERT∆TEN D788R, FLAG-tagged, co-expressed with TR (human).

“human TERT TEN domain (aa 2–197), Myc-tagged (from UniProt O14746 2-197) (domain or fragment)”: the POT1–TPP1-stimulated processivity in the trans complementation primer extension assay, relative to WT worked out at 64% and the total telomerase activity in the trans complementation primer extension assay, relative to WT TERT∆TEN with TEN is 24 % of WT.
